Measured values from patent publication US20260028407A1 (FIBROGEN, published 2026).
Where two headings read alike, the source gives them in different places.

Experiments:
[1] = biological target: T1, human Galectin-9 (Gal9) (human, UniProt O00182-2 1-323, limits assumed); experiment: SPR
T1 construct: also called human Gal9

[2] = biological target: T2, mouse Galectin-9 (Gal9) (mouse, UniProt O08573-2 2-322, limits assumed); experiment: solution equilibrium assay (SEA), mouse Gal9
T2 construct: also called mouse Gal9

[3] = biological target: T2, mouse Galectin-9 (Gal9); experiment: solution equilibrium assay (SEA), mouse Gal9; remark: listed apart in the source
[4] = biological target: T3, Gal9 as added in the T-cell apoptosis and TIM-3 dimerization assays (species not stated); experiment: cell-based or functional assay
[5] = biological target: T1, human Galectin-9 (Gal9); experiment: SPR; remark: listed apart in the source
[6] = biological target: T1, human Galectin-9 (Gal9); experiment: solution equilibrium assay (SEA), human Gal9
[7] = biological target: T1, human Galectin-9 (Gal9); experiment: solution equilibrium assay (SEA), human Gal9; remark: listed apart in the source
[8] = biological target: T3, Gal9 as added in the T-cell apoptosis …; experiment: cell-based or functional assay; remark: listed apart in the source
[9] = biological target: T3, Gal9 as added in the T-cell apoptosis …; experiment: cell-based or functional assay; remark: listed apart in the source
[10] = biological target: T3, Gal9 as added in the T-cell apoptosis …; experiment: cell-based or functional assay; remark: listed apart in the source

T1 sequence (O00182 other isoform, or with tags, fused parts or gaps limits assumed): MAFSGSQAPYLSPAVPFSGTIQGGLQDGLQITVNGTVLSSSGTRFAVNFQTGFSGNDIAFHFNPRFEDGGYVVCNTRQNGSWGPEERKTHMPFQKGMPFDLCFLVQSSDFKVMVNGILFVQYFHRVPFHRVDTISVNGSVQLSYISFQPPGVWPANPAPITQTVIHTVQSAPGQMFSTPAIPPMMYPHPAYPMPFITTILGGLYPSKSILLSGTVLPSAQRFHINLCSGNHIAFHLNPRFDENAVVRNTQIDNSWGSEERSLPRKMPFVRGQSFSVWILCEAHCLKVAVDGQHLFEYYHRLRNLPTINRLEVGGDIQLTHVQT
T3 sequence (O00182 whole entry): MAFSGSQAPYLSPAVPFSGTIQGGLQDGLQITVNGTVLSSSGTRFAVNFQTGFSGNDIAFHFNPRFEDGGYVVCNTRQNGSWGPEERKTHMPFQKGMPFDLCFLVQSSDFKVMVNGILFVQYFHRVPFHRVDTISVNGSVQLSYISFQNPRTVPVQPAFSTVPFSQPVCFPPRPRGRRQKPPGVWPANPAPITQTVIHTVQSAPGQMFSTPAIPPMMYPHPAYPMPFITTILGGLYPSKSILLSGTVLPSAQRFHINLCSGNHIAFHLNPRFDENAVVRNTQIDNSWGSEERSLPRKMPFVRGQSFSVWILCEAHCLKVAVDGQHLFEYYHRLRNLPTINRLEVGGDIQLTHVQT
T2 sequence (O08573 other isoform, or with tags, fused parts or gaps limits assumed): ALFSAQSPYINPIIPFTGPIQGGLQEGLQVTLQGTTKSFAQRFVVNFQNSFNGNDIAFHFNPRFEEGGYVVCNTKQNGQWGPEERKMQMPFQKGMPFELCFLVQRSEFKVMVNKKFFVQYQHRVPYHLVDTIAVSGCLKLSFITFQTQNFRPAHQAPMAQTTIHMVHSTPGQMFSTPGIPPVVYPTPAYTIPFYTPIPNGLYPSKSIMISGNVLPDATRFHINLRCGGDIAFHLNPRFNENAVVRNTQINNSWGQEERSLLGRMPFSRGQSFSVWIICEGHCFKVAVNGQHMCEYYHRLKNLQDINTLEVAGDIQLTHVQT

| Kd [1] [nM] | koff [1] [s⁻¹] | kon [1] [M⁻¹ s⁻¹] | Kd [2] [nM] | Kd [3] [nM] | IC50 of reducing Gal9-induced CD4+ T cell apoptosis [4] [nM] | Kd [5] [nM] | koff [5] [s⁻¹] | kon [5] [M⁻¹ s⁻¹] | Kd [6] [nM] | Kd [7] [nM] | IC50 (read off the curve), inhibition of Gal9-induced TIM-3 dimerization [8] [nM] | IC50 (read off the curve), inhibition of Gal9-induced CD4+ T cell apoptosis [9] [nM] | IC50, inhibition of Gal9-induced CD4+ T cell apoptosis (% AnnexinV+PI+ cells) [9] [nM] | IC50, inhibition of Gal9-induced TIM-3 dimerization (RLU, enzyme fragment complementation) [8] [nM] | IC50, inhibition of Gal9-induced CD8+ T cell apoptosis (% AnnexinV+PI+ cells) [10] [nM] | Binder |
| --- | --- | --- | --- | --- | --- | --- | --- | --- | --- | --- | --- | --- | --- | --- | --- | --- |
| 7.18 | 0.0099 | 1.4e+06 | 49 | 49 | 18.7 | 4.9 | 0.00077 | 160000 | 3.1 | 3.1 | – | – | – | – | – | antibody A (Ab A), HFB9-2hz11, parental humanized anti-Gal9 antibody (antibody, V domains shown, also called antibody Ab A) VH: QVQLVQSGAEVKKPGASVKVSCKASGYTFTEYTIHWVRQAPGQGLEWMGWFYPGSGSTEYAQKFQGRVTMTADTSISTAYMELSRLRSDDTAVYFCERHGGYDGFDYWGQGTTVTVSS VL: not shown |
| – | – | – | – | – | – | – | – | – | – | – | ~20 | – | – | – | – | antibody 003 (Ab 003), affinity matured anti-Gal9 antibody (antibody, V domains shown, Full HC/LC entries; they may hold a signal peptide) VH: QVQLVQSGAEVKKPGASVKVSCKASGYPFSSYTIHWVRQAPGQGLEWMGWFYPGSGSTEYAQKFQGRVTMTADTSISTAYMELSRLRSDDTAVYFCEVHGGYDGFDYWGQGTTVTVSS VL: not shown |
| – | – | – | – | – | 1.9 | – | – | – | – | – | ~20 | ~6 | 6.1 | 25 | 1.34 | antibody 001 (Ab 001), affinity matured anti-Gal9 antibody (antibody, V domains shown, Full HC/LC entries; they may hold a signal peptide) VH: QVQLVQSGAEVKKPGASVKVSCKASGYEFTEYTIHWVRQAPGQGLEWMGWFYPGSGSTWYAQKFQGRVTMTADTSISTAYMELSRLRSDDTAVYFCERHGGYDGFDYWGQGTTVTVSS VL: not shown |
